Measured values: patent US20210115138A1

Tests used:
[1] = biological target: human LAG-3 on cells (human) (UniProt P18627); assay: FACS on cell surface human LAG-3
[2] = biological target: human LAG-3 protein (Example 3) (human) (UniProt P18627); assay: ELISA; blocking of LAG-3 protein binding to Galectin-3
[3] = biological target: human LAG-3 on cells (human) (UniProt P18627); assay: FACS affinity test on cell surface human LAG-3
[4] = biological target: human LAG-3 protein (Example 3) (human) (UniProt P18627); assay: ELISA; blocking of LAG-3 protein binding to LSECtin
[5] = biological target: human LAG-3 protein (Example 3) (human) (UniProt P18627); assay: SPR
[6] = biological target: human LAG-3 protein (Example 3) (human) (UniProt P18627); assay: FACS; blocking of LAG-3 protein binding to MHC-II on Raji cells

Sequence of human LAG-3 protein (Example 3) (human) (P18627 23-450 limits assumed): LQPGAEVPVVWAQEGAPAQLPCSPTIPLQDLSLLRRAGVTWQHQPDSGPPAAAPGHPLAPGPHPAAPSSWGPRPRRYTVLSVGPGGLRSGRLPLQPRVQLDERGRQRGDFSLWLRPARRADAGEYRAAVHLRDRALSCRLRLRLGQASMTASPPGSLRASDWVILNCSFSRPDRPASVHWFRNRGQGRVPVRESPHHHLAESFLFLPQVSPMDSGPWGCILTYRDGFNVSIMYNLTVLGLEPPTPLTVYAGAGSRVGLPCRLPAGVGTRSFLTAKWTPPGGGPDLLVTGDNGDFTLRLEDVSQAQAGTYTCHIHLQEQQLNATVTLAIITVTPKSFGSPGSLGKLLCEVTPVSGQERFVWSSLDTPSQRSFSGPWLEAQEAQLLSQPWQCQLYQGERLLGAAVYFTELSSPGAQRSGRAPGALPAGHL
Sequence of human LAG-3 on cells (human) (P18627 23-525): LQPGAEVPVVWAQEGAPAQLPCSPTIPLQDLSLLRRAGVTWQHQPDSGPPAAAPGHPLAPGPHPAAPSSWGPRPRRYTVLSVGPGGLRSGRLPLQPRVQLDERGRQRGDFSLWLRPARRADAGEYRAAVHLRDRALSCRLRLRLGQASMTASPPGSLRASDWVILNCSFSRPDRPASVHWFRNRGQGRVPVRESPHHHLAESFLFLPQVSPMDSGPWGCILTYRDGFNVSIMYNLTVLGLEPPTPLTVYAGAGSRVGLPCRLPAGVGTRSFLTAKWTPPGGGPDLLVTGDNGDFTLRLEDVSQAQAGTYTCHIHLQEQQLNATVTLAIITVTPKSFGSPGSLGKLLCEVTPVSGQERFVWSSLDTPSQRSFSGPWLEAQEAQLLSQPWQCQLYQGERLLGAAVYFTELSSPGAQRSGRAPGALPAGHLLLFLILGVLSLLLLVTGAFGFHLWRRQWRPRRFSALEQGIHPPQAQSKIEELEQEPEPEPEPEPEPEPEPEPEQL

B1: BMK7 (antibody, INN chains, looked up, V domains shown)
VH: QVQLVESGGGVVQPGRSLRLSCVASGFTFSSYGMHWVRQAPGKGLEWVAIIWYDGSNKYYADSVKGRFTISRDNSKNTQYLQMNSLRAEDTAVYYCASVATSGDFDYYGMDVWGQGTTVTVSS
VL: EIVLTQSPATLSLSPGERTTLSCRASQRISTYLAWYQQKPGQAPRLLIYDASKRATGIPARFSGSGSGTGFTLTISSLEPEDFAVYYCQQRSNWPLTFGGGTKVEIK
EC50 [1]: 0.61 nM | EC50 [2]: 0.79 nM | Kd [3]: 0.58 nM | EC50 [4]: 0.59 nM | Kd [5]: 0.497 nM | EC50 [6]: 1.25 nM
